As a reminder, the Kd is the constant that tells how readily two partners part at equilibrium. As a reminder, the koff is a measure of how fast the partners let go of each other. The kon is the second-order rate constant of association.

The values that follow come from US20240092867A1 (UNIVERSITY OF CHICAGO, published 2024).

For one test, the target named is T1, laminin-111 (human, UniProt P25391 18-3075; P07942 22-1786; P11047 34-1609).
T1 construct: Full-length recombinant human laminin isoform (BioLamina); Chain composition is read from the isoform name
Put plainly: ELISA; plate coated with 10 µg/mL laminin, 1 µg/mL VEGF-A165 in solution without or with 10 µM heparin, bound GF detected with antibody [panel A]. On the procedure:
(§1) FIGS. 2A-C. […] ELISA plates were coated with 10 μg/mL laminin and further incubated with a 1 μg/mL (A) VEGF-A165, (B) PlGF-2, or (C) FGF-2 solution in the absence or presence of excess (10 μM) heparin. Bound GFs were detected using a specific antibody for each GF (n=4, mean±SEM). Statistical analyses were done using the Mann-Whitney U test by comparing the signals with and without heparin. *p<0.05, **p<0.01.
(§2) Because the GFs that bound to laminins have also been previously reported to bind to other ECM glycoproteins through HBDs, it was hypothesized that HBDs of laminins might be responsible for the interactions between GFs and laminin. To address this hypothesis, ELISA assays were repeated for VEGF-A165, PlGF-2 or FGF-2 in the presence of heparin added in excess (10 μM). […] To further confirm this, the inventors tested direct GF binding to the LG domains from human laminin α3, α4 and α5, within which HBDs of laminin were localized.

The next test deals with T2, laminin-421 (human, UniProt Q16363 25-1823; P55268 33-1798; P11047 34-1609).
T2 construct: Full-length recombinant human laminin isoform (BioLamina); chains read from the isoform name
T2 sequence (Q16363 25-1823 limits assumed, chain 1 of 3): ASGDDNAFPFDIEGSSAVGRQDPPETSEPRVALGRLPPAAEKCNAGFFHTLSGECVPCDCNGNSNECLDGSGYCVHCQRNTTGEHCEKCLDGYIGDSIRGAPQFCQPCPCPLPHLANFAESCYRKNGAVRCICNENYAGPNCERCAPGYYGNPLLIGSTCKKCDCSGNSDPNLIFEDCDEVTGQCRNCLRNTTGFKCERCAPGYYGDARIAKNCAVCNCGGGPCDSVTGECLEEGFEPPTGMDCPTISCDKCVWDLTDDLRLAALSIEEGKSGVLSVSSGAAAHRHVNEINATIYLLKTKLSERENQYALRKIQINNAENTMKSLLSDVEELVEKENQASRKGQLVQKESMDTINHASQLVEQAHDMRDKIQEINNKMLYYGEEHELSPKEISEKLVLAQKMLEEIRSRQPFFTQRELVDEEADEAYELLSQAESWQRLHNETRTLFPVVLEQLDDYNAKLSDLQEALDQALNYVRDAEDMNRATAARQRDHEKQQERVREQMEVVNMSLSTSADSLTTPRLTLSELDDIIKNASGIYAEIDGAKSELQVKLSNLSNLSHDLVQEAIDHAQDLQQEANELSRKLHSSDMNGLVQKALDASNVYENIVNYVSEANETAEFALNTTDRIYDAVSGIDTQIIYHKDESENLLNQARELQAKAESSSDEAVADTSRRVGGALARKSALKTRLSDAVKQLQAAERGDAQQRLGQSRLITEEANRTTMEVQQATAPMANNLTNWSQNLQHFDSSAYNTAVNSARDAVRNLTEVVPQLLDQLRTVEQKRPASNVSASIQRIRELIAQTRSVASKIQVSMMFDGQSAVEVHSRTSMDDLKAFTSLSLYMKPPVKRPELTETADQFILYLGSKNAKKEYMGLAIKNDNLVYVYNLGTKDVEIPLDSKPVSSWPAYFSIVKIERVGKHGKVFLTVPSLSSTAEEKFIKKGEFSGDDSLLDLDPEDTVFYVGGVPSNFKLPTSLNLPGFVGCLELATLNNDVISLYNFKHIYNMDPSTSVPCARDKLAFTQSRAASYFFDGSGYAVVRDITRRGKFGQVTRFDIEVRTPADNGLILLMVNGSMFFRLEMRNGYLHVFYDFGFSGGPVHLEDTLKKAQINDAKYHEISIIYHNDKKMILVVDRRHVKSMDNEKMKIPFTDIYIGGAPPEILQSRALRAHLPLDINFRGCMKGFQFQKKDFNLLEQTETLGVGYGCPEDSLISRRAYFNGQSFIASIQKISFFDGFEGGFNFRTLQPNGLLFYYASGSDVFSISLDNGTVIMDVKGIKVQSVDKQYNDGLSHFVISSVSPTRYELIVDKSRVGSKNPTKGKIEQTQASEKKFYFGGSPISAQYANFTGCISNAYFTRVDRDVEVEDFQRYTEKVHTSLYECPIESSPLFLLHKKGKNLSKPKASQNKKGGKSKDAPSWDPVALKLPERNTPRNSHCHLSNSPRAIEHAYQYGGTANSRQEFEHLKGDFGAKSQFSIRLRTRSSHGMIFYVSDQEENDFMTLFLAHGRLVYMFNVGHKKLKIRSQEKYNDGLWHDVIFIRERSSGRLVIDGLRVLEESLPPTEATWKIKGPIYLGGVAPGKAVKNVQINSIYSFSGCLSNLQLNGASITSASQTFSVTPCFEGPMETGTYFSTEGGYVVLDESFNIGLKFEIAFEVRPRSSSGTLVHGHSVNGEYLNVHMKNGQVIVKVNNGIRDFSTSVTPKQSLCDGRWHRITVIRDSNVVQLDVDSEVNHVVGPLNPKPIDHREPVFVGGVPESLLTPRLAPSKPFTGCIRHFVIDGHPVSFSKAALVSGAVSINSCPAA
T2 sequence (P55268 33-1798 limits assumed, chain 2 of 3): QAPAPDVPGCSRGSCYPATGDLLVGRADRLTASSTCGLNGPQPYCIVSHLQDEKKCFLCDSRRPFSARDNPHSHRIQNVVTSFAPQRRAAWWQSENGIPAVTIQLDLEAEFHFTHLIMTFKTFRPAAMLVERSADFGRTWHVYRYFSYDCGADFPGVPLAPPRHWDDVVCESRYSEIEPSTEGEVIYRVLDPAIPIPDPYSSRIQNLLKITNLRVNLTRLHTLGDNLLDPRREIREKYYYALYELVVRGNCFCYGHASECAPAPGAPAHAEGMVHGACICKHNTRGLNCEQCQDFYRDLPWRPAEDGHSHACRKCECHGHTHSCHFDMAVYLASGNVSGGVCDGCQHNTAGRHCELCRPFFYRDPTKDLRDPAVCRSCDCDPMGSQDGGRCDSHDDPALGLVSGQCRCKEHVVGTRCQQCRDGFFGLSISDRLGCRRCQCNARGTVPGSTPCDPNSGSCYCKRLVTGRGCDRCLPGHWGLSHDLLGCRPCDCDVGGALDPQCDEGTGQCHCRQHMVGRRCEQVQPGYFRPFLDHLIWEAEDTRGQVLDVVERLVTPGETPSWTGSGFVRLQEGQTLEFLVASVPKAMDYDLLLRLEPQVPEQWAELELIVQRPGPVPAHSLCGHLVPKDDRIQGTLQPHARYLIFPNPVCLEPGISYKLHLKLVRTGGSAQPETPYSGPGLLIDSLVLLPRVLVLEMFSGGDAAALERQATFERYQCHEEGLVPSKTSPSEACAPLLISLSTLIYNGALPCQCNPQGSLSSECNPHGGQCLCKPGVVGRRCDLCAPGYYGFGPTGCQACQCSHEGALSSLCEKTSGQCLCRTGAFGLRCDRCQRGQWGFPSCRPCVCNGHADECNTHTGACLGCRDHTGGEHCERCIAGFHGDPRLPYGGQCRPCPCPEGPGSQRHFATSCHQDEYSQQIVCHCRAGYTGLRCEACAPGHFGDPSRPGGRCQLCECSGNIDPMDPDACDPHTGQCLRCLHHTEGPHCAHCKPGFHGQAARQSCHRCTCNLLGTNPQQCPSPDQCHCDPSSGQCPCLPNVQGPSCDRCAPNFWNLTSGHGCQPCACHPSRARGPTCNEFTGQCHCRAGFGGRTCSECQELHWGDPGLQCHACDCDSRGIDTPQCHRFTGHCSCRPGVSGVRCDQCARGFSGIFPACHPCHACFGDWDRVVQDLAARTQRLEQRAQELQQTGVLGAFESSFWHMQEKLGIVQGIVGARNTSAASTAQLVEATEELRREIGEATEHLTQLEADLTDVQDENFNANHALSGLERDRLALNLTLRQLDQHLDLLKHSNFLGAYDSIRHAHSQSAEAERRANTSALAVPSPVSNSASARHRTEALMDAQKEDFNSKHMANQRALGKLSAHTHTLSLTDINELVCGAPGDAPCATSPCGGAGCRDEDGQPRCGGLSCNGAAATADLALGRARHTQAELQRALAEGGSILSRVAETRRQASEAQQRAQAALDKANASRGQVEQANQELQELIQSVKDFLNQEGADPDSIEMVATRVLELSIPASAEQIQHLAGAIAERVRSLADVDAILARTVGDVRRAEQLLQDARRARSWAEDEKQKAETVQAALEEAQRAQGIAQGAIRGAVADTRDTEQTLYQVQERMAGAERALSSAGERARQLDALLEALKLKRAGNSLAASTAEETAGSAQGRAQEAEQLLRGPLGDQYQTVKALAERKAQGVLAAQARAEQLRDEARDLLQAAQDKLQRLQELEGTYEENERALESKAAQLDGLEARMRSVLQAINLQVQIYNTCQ
T2 sequence (P11047 34-1609 limits assumed, chain 3 of 3): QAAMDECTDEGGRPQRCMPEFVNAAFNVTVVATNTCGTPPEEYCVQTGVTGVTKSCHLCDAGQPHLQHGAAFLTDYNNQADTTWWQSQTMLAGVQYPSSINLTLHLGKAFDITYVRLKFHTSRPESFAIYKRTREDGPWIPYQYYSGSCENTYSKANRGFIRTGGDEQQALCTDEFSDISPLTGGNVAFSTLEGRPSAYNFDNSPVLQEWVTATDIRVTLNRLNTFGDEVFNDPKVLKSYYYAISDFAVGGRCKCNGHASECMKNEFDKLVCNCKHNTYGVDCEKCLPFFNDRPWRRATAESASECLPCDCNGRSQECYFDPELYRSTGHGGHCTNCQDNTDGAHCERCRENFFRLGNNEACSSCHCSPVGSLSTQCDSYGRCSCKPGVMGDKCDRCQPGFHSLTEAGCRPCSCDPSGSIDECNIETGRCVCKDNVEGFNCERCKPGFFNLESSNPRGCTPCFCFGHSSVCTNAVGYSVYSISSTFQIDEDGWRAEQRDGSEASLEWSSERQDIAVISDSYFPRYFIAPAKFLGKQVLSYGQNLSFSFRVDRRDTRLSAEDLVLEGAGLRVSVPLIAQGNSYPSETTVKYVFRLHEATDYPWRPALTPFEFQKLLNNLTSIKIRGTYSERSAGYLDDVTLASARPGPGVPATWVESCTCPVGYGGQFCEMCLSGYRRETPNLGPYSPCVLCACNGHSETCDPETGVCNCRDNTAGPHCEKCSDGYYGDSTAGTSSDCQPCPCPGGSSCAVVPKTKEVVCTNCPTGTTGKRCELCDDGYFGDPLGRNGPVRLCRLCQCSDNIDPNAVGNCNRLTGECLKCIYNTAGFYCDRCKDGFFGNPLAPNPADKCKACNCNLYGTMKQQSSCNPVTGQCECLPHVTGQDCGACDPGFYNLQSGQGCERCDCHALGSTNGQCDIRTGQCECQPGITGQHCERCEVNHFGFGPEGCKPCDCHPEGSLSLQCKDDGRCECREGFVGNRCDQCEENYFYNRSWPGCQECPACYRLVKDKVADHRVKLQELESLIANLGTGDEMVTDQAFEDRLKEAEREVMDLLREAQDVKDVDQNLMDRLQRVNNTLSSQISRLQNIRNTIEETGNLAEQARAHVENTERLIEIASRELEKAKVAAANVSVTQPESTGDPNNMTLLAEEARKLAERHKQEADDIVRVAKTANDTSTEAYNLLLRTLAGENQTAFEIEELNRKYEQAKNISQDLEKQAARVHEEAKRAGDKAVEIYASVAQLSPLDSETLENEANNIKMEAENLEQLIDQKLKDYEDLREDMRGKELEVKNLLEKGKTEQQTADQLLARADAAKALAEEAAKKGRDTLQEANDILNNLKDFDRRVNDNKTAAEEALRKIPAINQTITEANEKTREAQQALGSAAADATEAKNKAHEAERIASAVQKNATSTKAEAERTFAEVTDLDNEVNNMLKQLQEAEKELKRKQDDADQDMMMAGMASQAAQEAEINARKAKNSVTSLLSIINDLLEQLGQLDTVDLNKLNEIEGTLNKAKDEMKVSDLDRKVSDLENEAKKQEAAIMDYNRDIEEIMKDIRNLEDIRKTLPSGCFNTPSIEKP
The description is as above. On the procedure: as §1, §2

A further test concerns the target T3, laminin-211 (human, UniProt P24043 23-3122; P07942 22-1786; P11047 34-1609).
T3 construct: Full-length recombinant human laminin isoform (BioLamina); chains read from the isoform name
The description is as above. On the procedure:
as §1, §2

In a further test the target is T4, laminin-411 (human, UniProt Q16363 25-1823; P07942 22-1786; P11047 34-1609).
T4 construct: Full-length recombinant human laminin isoform (BioLamina); chains read from the isoform name
The description is as above. On the procedure:
as §1, §2

The target in test [1] is T5, recombinant laminin α3 2928-3150 protein (linker domain and LG4 domain) (human, UniProt Q16787 2928-3150).
T5 construct: range 2928-3150; Made in HEK-293F cells; also called laminin alpha 3 LG domain recombinant protein
T5 sequence: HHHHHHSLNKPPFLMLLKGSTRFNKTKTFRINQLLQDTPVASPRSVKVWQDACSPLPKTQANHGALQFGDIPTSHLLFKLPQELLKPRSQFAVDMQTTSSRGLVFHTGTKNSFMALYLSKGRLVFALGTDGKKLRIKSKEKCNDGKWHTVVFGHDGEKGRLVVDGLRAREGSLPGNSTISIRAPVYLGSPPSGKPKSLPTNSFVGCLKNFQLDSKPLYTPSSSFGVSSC
Put plainly: SPR; α3 2928-3150 recombinant protein immobilised (~1000 RU), VEGF-A165 flowed at 0.325-10.4 nM; Langmuir fit [panel D].
Source text: Statistical analyses were done using the Mann-Whitney U test by comparing the signals obtained from the laminin domain- and the BSA-coated wells. *p<0.05, **p<0.01. […] A SPR chip was functionalized with the laminin α3₂₉₂₈₋₃₁₅₀ recombinant protein (˜1000 RU), and each GF was flowed over the chip at indicated concentrations. Curves represent the specific responses (in RU) to laminin. Experimental curves were fitted with Langmuir binding kinetics.
as §2
SPR analysis was performed as described previously². In brief, measurements were made with a Biacore 3000 SPR system (GE Healthcare). […] VEGF-A165, PDGF-BB, or PlGF-2 was flowed at increasing concentrations in the running buffer at 20 μL/min. The sensor chip was regenerated with 50 mM NaOH for every cycle.
A general note: Surface plasmon resonance follows binding to a sensor surface in real time, without labels.

B1: vascular endothelial growth factor (VEGF)-A165 (ligand, human, UniProt P15692-4 27-191, looked up)
chain: APMAEGGGQNHHEVVKFMDVYQRSYCHPIETLVDIFQEYPDEIEYIFKPSCVPLMRCGGCCNDEGLECVPTEESNITMQIMRIKPHQGQHIGEMSFLQHNKCECRPKKDRARQENPCGPCSERRKHLFVQDPQTCKCSCKNTDSRCKARQLELNERTCRCDKPRR
notes: mature; Purchased in mature form, not glycosylated
Take B1: the binding result with laminin-111, with laminin-421, in the test with laminin-211 and with laminin-411 was “binds” in each case. Besides, in test [1], the Kd worked out at 1.47 nM. Further, the koff in test [1] was 0.00663 s⁻¹. In test [1], the kon came out at 4.52e+06 M⁻¹ s⁻¹.
